Measurements from PMC11405395 (The EMBO Journal, 2024).
Numbering of substitutions follows the chain as printed. Names and notes keep the numbering of the source.

B1: Rrm3-6A (Rrm3 F89A, Q93A, F96A, D99A, E104A, L108A) (enzyme, S. cerevisiae, UniProt P38766 1-723, looked up)
chain: MFRSHASGNKKQWSKRSSNGSTPAASASGSHAYRQQTLSSFFMGCGKKSAAASKNSTTIIDLESGDEGNRNITAPPRPRLIRNNSSSLASQSAGSAGDADPDAAFKKAVDVPRLNSYKKSSRSLSMTSSLHKTASASTTQKTYHFDEDETLREVTSVKSNSRQLSFTSTINIEDSSMKLSTDSERPAKRSKPSMEFQGLKLTVPKKIKPLLRKTVSNMDSMNHRSASSPVVLTMEQERVVNLIVKKRTNVFYTGSAGTGKSVILQTIIRQLSSLYGKESIAITASTGLAAVTIGGSTLHKWSGIGIGNKTIDQLVKKIQSQKDLLAAWRYTKVLIIDEISMVDGNLLDKLEQIARRIRKNDDPFGGIQLVLTGDFFQLPPVAKKDEHNVVKFCFESEMWKRCIQKTILLTKVFRQQDNKLIDILNAIRYGELTVDIAKTIRNLNRDIDYADGIAPTELYATRREVELSNVKKLQSLPGDLYEFKAVDNAPERYQAILDSSLMVEKVVALKEDAQVMMLKNKPDVELVNGSLGKVLFFVTESLVVKMKEIYKIVDDEVVMDMRLVSRVIGNPLLKESKEFRQDLNARPLARLERLKILINYAVKISPHKEKFPYVRWTVGKNKYIHELMVPERFPIDIPRENVGLERTQIPLMLCWALSIHKAQGQTIQRLKVDLRRIFEAGQVYVALSRAVTMDTLQVLNFDPGKIRTNERVKDFYKRLETLK
notes: Plasmid pOO16; also called 3FLAG-TEV-RRM3-6A; source: S. cerevisiae strain yOO8, purified (anti-FLAG M2 resin, HiTrap heparin); not shown: 3FLAG, N-terminal, kept
B2: Rrm3-CR (Rrm3 F89D, Q93A, F96K, D99K, E104K) (enzyme, S. cerevisiae, UniProt P38766 1-723, looked up)
chain: B1 chain with A89D, A96K, A99K, A104K, A108L
notes: Plasmid pOO15; also called 3FLAG-TEV-RRM3-CR; source: S. cerevisiae strain yOO9, purified (anti-FLAG M2 resin, HiTrap heparin); not shown: 3FLAG, N-terminal, kept
B3: Homo sapiens RTEL1 (wild-type, FLAG-tagged) (enzyme, human, UniProt Q9NZ71-1 1-1219, looked up)
chain: MPKIVLNGVTVDFPFQPYKCQQEYMTKVLECLQQKVNGILESPTGTGKTLCLLCTTLAWREHLRDGISARKIAERAQGELFPDRALSSWGNAAAAAGDPIACYTDIPKIIYASRTHSQLTQVINELRNTSYRPKVCVLGSREQLCIHPEVKKQESNHLQIHLCRKKVASRSCHFYNNVEEKSLEQELASPILDIEDLVKSGSKHRVCPYYLSRNLKQQADIIFMPYNYLLDAKSRRAHNIDLKGTVVIFDEAHNVEKMCEESASFDLTPHDLASGLDVIDQVLEEQTKAAQQGEPHPEFSADSPSPGLNMELEDIAKLKMILLRLEGAIDAVELPGDDSGVTKPGSYIFELFAEAQITFQTKGCILDSLDQIIQHLAGRAGVFTNTAGLQKLADIIQIVFSVDPSEGSPGSPAGLGALQSYKVHIHPDAGHRRTAQRSDAWSTTAARKRGKVLSYWCFSPGHSMHELVRQGVRSLILTSGTLAPVSSFALEMQIPFPVCLENPHIIDKHQIWVGVVPRGPDGAQLSSAFDRRFSEECLSSLGKALGNIARVVPYGLLIFFPSYPVMEKSLEFWRARDLARKMEALKPLFVEPRSKGSFSETISAYYARVAAPGSTGATFLAVCRGKASEGLDFSDTNGRGVIVTGLPYPPRMDPRVVLKMQFLDEMKGQGGAGGQFLSGQEWYRQQASRAVNQAIGRVIRHRQDYGAVFLCDHRFAFADARAQLPSWVRPHVRVYDNFGHVIRDVAQFFRVAERTMPAPAPRATAPSVRGEDAVSEAKSPGPFFSTRKAKSLDLHVPSLKQRSSGSPAAGDPESSLCVEYEQEPVPARQRPRGLLAALEHSEQRAGSPGEEQAHSCSTLSLLSEKRPAEEPRGGRKKIRLVSHPEEPVAGAQTDRAKLFMVAVKQELSQANFATFTQALQDYKGSDDFAALAACLGPLFAEDPKKHNLLQGFYQFVRPHHKQQFEEVCIQLTGRGCGYRPEHSIPRRQRAQPVLDPTGRTAPDPKLTVSTAAAQQLDPQEHLNQGRPHLSPRPPPTGDPGSQPQWGSGVPRAGKQGQHAVSAYLADARRALGSAGCSQLLAALTAYKQDDDLDKVLAVLAALTTAKPEDFPLLHRFSMFVRPHHKQRFSQTCTDLTGRPYPGMEPPGPQEERLAVPPVLTHRAPQPGPSRSEKTGKTQSKISSFLRQRPAGTVGAGGEDAGPSQSSGPPHGPAASEWGL
notes: RTEL1, human; the models and residue numbers are of isoform 1 (NP_057518.1), printed to residue 1219; Plasmid pTD195; The isoform is printed for the AlphaFold models; the deletion mutants use the same numbering; also called hsRTEL1; RTEL1-2FLAG; source: S. cerevisiae strain yOO1, purified (anti-FLAG M2 resin, HiLoad Superdex 200); not shown: 2XFLAG, C-terminal, kept
B4: Rrm3Δ86-110 (enzyme, S. cerevisiae, UniProt P38766 1-723, looked up)
chain: MFRSHASGNKKQWSKRSSNGSTPAASASGSHAYRQQTLSSFFMGCGKKSAAASKNSTTIIDLESGDEGNRNITAPPRPRLIRNNSVPRLNSYKKSSRSLSMTSSLHKTASASTTQKTYHFDEDETLREVTSVKSNSRQLSFTSTINIEDSSMKLSTDSERPAKRSKPSMEFQGLKLTVPKKIKPLLRKTVSNMDSMNHRSASSPVVLTMEQERVVNLIVKKRTNVFYTGSAGTGKSVILQTIIRQLSSLYGKESIAITASTGLAAVTIGGSTLHKWSGIGIGNKTIDQLVKKIQSQKDLLAAWRYTKVLIIDEISMVDGNLLDKLEQIARRIRKNDDPFGGIQLVLTGDFFQLPPVAKKDEHNVVKFCFESEMWKRCIQKTILLTKVFRQQDNKLIDILNAIRYGELTVDIAKTIRNLNRDIDYADGIAPTELYATRREVELSNVKKLQSLPGDLYEFKAVDNAPERYQAILDSSLMVEKVVALKEDAQVMMLKNKPDVELVNGSLGKVLFFVTESLVVKMKEIYKIVDDEVVMDMRLVSRVIGNPLLKESKEFRQDLNARPLARLERLKILINYAVKISPHKEKFPYVRWTVGKNKYIHELMVPERFPIDIPRENVGLERTQIPLMLCWALSIHKAQGQTIQRLKVDLRRIFEAGQVYVALSRAVTMDTLQVLNFDPGKIRTNERVKDFYKRLETLK
notes: Plasmid pOO14; also called 3FLAG-TEV RRM3-∆86-110; source: S. cerevisiae strain yOO7, purified (anti-FLAG M2 resin, HiTrap heparin); not shown: 3FLAG, N-terminal, kept
B5: Rrm3Δ111-130 (enzyme, S. cerevisiae, UniProt P38766 1-723, looked up)
chain: MFRSHASGNKKQWSKRSSNGSTPAASASGSHAYRQQTLSSFFMGCGKKSAAASKNSTTIIDLESGDEGNRNITAPPRPRLIRNNSSSLFSQSQGSFGDDDPDAEFKKLVDHKTASASTTQKTYHFDEDETLREVTSVKSNSRQLSFTSTINIEDSSMKLSTDSERPAKRSKPSMEFQGLKLTVPKKIKPLLRKTVSNMDSMNHRSASSPVVLTMEQERVVNLIVKKRTNVFYTGSAGTGKSVILQTIIRQLSSLYGKESIAITASTGLAAVTIGGSTLHKWSGIGIGNKTIDQLVKKIQSQKDLLAAWRYTKVLIIDEISMVDGNLLDKLEQIARRIRKNDDPFGGIQLVLTGDFFQLPPVAKKDEHNVVKFCFESEMWKRCIQKTILLTKVFRQQDNKLIDILNAIRYGELTVDIAKTIRNLNRDIDYADGIAPTELYATRREVELSNVKKLQSLPGDLYEFKAVDNAPERYQAILDSSLMVEKVVALKEDAQVMMLKNKPDVELVNGSLGKVLFFVTESLVVKMKEIYKIVDDEVVMDMRLVSRVIGNPLLKESKEFRQDLNARPLARLERLKILINYAVKISPHKEKFPYVRWTVGKNKYIHELMVPERFPIDIPRENVGLERTQIPLMLCWALSIHKAQGQTIQRLKVDLRRIFEAGQVYVALSRAVTMDTLQVLNFDPGKIRTNERVKDFYKRLETLK
notes: Plasmid pOO10; source: S. cerevisiae strain yOO5, purified (anti-FLAG M2 resin, HiTrap heparin); not shown: 3FLAG, N-terminal, kept

Legend:
Settings in all cases: both partners purified
[1] = molecular target: T1, GINS tetramer (Sld5, Psf1, Psf2, Psf3), S. cerevisiae (S. cerevisiae, UniProt Q03406 1-294; Q12488 1-208; P40359 1-213; Q12146 1-194); assay: co-IP; purified proteins mixed: 10 nM FLAG-Rrm3 with 15 nM GINS, 10 min on ice; anti-FLAG M2 magnetic beads; 25 mM Hepes-KOH pH 7.6, 200 mM KOAc, 0.02% NP-40-S, 0.1 mg/mL BSA, 1 mM DTT, 10 mM Mg(OAc)2; immunoblotting
T1 construct: Sld5, GINS subunit, S. cerevisiae; Psf1, GINS subunit, S. cerevisiae; Psf2, GINS subunit, S. cerevisiae; Psf3, GINS subunit, S. cerevisiae; pJL005 with TwinStrep-Psf3; also called tetrameric GINS complex; source: purified as previously described (Yeeles et al, 2015; Lewis et al, 2022); copies: + + +
T1 sequence (looked up) 1: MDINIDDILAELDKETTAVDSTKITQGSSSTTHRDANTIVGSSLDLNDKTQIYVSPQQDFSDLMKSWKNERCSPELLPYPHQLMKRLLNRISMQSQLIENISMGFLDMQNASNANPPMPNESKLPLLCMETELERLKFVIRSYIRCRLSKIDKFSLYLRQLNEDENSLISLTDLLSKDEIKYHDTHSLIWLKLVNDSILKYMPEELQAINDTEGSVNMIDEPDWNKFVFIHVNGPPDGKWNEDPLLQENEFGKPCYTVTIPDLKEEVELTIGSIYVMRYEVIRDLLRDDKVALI
T1 sequence (looked up) 2: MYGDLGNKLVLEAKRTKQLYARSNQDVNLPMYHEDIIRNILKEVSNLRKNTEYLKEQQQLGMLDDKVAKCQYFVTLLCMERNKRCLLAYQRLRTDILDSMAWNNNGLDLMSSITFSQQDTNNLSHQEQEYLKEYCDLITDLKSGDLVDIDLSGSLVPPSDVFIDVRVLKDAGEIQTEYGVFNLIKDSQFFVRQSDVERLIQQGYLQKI
T1 sequence (looked up) 3: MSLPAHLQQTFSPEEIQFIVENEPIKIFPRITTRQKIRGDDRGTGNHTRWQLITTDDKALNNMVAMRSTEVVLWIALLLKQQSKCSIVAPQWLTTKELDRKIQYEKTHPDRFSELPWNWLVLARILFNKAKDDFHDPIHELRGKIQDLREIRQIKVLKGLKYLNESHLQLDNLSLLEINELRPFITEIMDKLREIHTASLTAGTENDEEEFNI
T1 sequence (looked up) 4: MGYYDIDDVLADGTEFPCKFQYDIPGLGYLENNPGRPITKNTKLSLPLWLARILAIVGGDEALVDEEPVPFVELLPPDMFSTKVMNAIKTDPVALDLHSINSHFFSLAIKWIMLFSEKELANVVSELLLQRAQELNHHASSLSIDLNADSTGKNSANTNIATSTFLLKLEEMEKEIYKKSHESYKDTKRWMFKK

[2] = molecular target: T2, Homo sapiens CMG helicase (CDC45-MCM2-7-GINS) (human, UniProt P49736 1-904; P25205 1-808; P33991 1-863; P33992 1-734; Q14566 1-821; P33993 …); assay: co-IP; purified proteins mixed: 10 nM RTEL1-FLAG with 15 nM hsCMG, 10 min on ice; anti-FLAG M2 magnetic beads; 25 mM Hepes-KOH pH 7.6, 100 mM KOAc, 0.02% NP-40-S, 0.1 mg/mL BSA, 1 mM DTT, 10 mM Mg(OAc)2; immunoblotting
T2 construct: MCM2, human, subunit of CMG; MCM3, human, subunit of CMG; MCM4, human, subunit of CMG; MCM5, human, subunit of CMG; MCM6, human, subunit of CMG; MCM7, human, subunit of CMG; CDC45, human, subunit of CMG; SLD5 (GINS4), human, GINS subunit of CMG (PrA-3TEV-HsSld5; eluted from IgG Sepharose with TEV protease); PSF1 (GINS1), human, GINS subunit of CMG; PSF2 (GINS2), human, GINS subunit of CMG; PSF3 …

[3] = molecular target: T3, DNA polymerase ε (Pol2, Dpb2, Dpb3, Dpb4), S. cerevisiae (S. cerevisiae, UniProt P21951 1-2222; P24482 1-689; P27344 1-201; Q04603 1-196); assay: co-IP; purified proteins mixed: 10 nM FLAG-Rrm3 with 15 nM Pol ε, 10 min on ice; anti-FLAG M2 magnetic beads; 25 mM Hepes-KOH pH 7.6, 400 mM KOAc, 0.02% NP-40-S, 0.1 mg/mL BSA, 1 mM DTT, 10 mM Mg(OAc)2; immunoblotting
T3 construct: Pol2, catalytic subunit of DNA polymerase ε, S. cerevisiae; Dpb2, second largest subunit of DNA polymerase ε, S. cerevisiae; Dpb3, subunit of DNA polymerase ε, S. cerevisiae; Dpb4, subunit of DNA polymerase ε, S. cerevisiae (DPB4-TEV-CBP); also called Polε; Pol ε; source: S. cerevisiae strain yAJ2, purified as previously described (Yeeles et al, 2015); copies: + + +
T3 sequence (P21951 whole entry, chain 1 of 4): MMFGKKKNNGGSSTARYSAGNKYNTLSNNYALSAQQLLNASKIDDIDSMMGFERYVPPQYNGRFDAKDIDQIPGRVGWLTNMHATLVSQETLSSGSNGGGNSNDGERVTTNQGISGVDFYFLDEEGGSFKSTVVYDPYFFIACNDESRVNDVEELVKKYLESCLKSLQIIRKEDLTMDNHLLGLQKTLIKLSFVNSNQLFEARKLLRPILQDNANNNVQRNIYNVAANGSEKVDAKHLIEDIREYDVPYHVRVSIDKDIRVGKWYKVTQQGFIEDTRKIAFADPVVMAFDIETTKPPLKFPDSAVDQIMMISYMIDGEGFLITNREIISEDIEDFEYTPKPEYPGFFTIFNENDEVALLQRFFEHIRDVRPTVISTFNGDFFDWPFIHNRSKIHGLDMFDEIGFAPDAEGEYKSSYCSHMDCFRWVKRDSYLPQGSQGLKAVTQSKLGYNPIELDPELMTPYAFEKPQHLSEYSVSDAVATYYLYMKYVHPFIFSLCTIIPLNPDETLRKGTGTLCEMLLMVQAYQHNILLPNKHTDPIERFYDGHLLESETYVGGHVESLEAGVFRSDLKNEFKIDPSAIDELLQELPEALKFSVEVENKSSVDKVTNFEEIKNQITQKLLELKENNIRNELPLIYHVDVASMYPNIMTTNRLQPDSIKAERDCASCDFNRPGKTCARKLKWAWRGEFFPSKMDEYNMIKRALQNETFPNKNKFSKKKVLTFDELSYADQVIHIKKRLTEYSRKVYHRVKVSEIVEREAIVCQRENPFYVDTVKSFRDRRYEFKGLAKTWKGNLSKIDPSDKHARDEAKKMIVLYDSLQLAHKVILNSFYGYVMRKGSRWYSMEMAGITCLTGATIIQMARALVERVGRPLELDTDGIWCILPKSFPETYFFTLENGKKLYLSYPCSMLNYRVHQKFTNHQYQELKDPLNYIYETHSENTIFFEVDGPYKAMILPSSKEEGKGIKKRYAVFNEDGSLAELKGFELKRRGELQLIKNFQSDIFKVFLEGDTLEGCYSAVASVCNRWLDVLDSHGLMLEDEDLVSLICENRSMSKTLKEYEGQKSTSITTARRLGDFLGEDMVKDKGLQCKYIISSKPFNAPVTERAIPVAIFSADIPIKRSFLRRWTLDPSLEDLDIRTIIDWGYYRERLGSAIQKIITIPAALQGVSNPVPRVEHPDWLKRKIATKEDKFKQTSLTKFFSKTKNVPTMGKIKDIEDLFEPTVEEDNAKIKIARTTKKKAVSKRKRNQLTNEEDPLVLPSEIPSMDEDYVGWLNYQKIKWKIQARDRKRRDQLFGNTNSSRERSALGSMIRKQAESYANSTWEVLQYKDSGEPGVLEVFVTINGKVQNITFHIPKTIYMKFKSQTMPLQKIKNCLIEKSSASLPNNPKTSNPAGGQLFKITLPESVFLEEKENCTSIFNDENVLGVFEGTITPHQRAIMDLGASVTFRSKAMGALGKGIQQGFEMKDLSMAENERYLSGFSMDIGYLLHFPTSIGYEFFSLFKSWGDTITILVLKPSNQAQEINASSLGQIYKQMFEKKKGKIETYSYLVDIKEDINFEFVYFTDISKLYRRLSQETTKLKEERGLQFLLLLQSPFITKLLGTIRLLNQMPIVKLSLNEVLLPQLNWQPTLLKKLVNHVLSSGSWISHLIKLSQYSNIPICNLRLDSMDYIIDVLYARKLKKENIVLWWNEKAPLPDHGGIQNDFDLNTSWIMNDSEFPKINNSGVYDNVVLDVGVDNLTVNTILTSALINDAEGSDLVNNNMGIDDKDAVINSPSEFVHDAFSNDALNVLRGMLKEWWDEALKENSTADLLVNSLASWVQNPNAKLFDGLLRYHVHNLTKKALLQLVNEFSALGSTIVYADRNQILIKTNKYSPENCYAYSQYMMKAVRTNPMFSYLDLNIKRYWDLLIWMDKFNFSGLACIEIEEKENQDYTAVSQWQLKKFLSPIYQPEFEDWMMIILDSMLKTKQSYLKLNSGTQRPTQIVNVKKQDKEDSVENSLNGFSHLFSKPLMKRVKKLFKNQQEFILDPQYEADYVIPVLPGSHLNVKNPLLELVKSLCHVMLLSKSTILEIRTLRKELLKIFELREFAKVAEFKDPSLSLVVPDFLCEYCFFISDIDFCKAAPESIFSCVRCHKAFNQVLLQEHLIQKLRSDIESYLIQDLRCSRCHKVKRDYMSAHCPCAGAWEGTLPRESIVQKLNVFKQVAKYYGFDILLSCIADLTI
T3 sequence (P24482 whole entry, chain 2 of 4): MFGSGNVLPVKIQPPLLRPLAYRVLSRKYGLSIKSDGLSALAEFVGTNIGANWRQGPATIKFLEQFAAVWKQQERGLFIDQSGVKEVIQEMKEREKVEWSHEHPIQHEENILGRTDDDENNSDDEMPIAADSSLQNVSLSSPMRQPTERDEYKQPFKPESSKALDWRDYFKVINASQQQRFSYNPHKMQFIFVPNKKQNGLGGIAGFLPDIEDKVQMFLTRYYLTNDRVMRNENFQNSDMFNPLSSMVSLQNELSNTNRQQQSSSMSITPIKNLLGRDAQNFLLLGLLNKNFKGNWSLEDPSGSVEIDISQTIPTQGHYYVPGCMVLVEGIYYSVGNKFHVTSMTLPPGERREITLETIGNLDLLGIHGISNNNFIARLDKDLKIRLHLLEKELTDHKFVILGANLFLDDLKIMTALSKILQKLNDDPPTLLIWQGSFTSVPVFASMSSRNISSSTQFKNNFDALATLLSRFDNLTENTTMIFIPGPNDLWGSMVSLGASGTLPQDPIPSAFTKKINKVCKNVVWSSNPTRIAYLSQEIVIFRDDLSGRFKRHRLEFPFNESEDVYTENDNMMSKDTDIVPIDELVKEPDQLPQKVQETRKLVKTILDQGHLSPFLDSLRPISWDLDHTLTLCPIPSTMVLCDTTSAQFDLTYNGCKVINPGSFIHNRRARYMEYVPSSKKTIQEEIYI
T3 sequence (P27344 whole entry, chain 3 of 4): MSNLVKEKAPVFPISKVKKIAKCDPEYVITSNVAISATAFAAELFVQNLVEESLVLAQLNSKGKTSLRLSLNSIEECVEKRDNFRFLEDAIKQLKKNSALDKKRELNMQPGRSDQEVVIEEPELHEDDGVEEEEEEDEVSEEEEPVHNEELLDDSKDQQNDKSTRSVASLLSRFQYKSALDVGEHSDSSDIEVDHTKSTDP
T3 sequence (Q04603 whole entry, chain 4 of 4): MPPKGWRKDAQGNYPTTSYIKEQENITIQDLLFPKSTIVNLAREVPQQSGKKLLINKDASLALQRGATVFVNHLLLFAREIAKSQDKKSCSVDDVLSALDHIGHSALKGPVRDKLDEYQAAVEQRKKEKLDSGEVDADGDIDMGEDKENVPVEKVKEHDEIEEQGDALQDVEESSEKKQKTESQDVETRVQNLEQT

Binder	binding result [1]	other results
B1	binds	–
B2	binds	–
B3	–	binding result [2]: binds
B4	binds	–
B5	–	binding result [3]: binds
